Legend:
human FcγRIIIa (human) [1] = molecular target: human FcγRIIIa (human) (UniProt P08637)
human FcγRI (human) = human FcγRI (human) (UniProt P12314); experiment: SPR; Biacore T200; hFcγRI captured on an NTA chip loaded with Ni2+ (≈200 RU); AvFc flowed over, 5 concentrations from 324 nM in 1:3 dilutions; regeneration 350 mM EDTA; 1:1 binding model
human FcγRIIIa (human) [2] = molecular target: human FcγRIIIa (human) (UniProt P08637); experiment: SPR; Biacore T200; receptor captured by its 6xHis tag on an anti‐6xHis antibody amine‐coupled to a CM5 chip; AvFc variants flowed over, 5 concentrations from 2 μM in 1:2 dilutions, 30 μL/min, 240 s association, 600 s dissociation; 1:1 binding model
mouse FcγRIV (mouse) = experiment: as above
Sequence of mouse FcγRIV (mouse) (A0A0B4J1G0 21-203): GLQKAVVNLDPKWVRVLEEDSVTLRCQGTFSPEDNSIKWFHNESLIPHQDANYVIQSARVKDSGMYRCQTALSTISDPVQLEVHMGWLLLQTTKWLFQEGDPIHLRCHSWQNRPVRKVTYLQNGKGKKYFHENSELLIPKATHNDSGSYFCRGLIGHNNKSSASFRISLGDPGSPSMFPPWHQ

Sequence of human FcγRI (human) (P12314 16-292): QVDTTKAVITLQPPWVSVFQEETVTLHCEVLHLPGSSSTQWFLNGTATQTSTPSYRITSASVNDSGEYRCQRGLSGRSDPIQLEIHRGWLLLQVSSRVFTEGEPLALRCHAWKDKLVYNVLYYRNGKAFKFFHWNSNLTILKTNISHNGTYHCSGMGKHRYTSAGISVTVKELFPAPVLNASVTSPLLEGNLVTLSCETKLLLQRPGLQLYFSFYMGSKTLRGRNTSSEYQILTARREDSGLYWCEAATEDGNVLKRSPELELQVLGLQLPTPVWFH

| Substance | ADCC reporter assay: luciferase in Jurkat effector cells expressing hFcγRIIIa, B16F10 target cells, AvFc 650 nM to 8.32 pM; EC50 (human FcγRIIIa (human) [1]) [nM] | ADCC reporter assay: luciferase in Jurkat effector cells expressing hFcγRIIIa, B16F10 target cells, AvFc 650 nM to 8.32 pM; highest luciferase induction (human FcγRIIIa (human) [1]) [fold] | fold increase in affinity over AvFc^WT (human FcγRI (human)) [fold] | fold increase in affinity over AvFc^WT (human FcγRIIIa (human) [2]) [fold] | fold increase in affinity over AvFc^WT (mouse FcγRIV (mouse)) [fold] |
| --- | --- | --- | --- | --- | --- |
| Avaren‐Fc expressed in wild‐type N. benthamiana (AvFc^WT) (Fc fusion) | 13.8 | 2.9 |  |  |  |
| Avaren‐Fc expressed in glycoengineered ΔXylT/ΔFucT N. benthamiana (AvFc^ΔXF) (Fc fusion) | 2.75 | 5.5 | 1.9 | 3.8 | 5.5 |

From paper PMC9616523
